{"source": "patent US6903183B1", "about": "“Compositions and methods for regulation of steroidogenesis” (Texas Tech University Health Services Center, priority 1996, dated 2005)", "molecules": {"B1": {"name": "StAR: LH-inducible mitochondrial 37 kDa precursor / 30 kDa mature protein, SEQ ID NO:2 (mouse) or 18 (human) (protein)", "chain": "MGQVRRRSSLLGSQLEATLYSDQELSYIQQGEVAMQKALGILNNQEGWKKESQQENGDEVLSKMVPDVGKVFRLEVVVDQPMDRLYEELVDRMEAMGEWNPNVKEIKVLQRIGKDTVITHELAAAAAGNLVGPRDFVSVRCTKRRGSTCVLAGMATHFGEMPEQSGVIRAEHGPTCMVLHPLAGSPSKTKLTWLLSIDLKGWLPKTIINQVLSQTQIEFANHLRKRLEASPASEAQC"}}, "key": {"[1]": {"target": "T1, StAR (Mus musculus, UniProt P51557)", "T1 construct": "made in house; host or cells: three sources: dbcAMP-stimulated MA-10 cells (endogenous); COS 1 cells transfected with StAR cDNA; E. coli with pKK233-2/StAR", "T1 sequence (P51557 63-284)": "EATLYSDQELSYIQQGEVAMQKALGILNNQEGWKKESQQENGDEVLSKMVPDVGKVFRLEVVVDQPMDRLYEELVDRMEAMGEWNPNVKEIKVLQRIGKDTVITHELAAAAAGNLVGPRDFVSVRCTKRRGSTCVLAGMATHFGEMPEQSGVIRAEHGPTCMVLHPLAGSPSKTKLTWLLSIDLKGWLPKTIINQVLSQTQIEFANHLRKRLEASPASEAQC", "assay": "Cholesterol binding to StAR (filtration radioassays, native PAGE)", "description": "For these studies StAR proteins were obtained from three sources; (1) MA-10 cells stimulated with dbAMP; (2) monkey kidney cells (COS 1) transfected with StAR cDNA; and (3) expression of a recombinant pKK233-2/StAR plasmid in E. coli. Filtration radioassays and Steady-State (native) polyacrylamide gel electrophoresis were used to detect cholesterol binding to StAR. […] Thus, this study has provided evidence that cholesterol can bind to the StAR protein with high affinity."}, "[2]": {"target": "T1, StAR", "assay": "Fluorescent sterol binding assay"}, "[3]": {"tested_on": "MA-10 cells", "assay": "Progesterone production in MA-10 cells transfected with the 30 kDa cDNA (radioimmunoassay)", "assay_type": "cell-based, mouse", "description": "Expression of the 30-kD Protein in MA-10 Cells and COS I Cells. The full length SalI-NotI 1456 base pair 30-kDa cDNA was subcloned into the eukaryotic expression vector, pCMV (Anderson, et al., 1989). MA-10 cells were transfected with DNA by a lipsome-mediated uptake using the LipofectAMINE reagent (Life Technologies, Inc. Gathersburg, Md.) (Hawley-Nelson, et al., 1993). Plasmid DNA used in transfection experiments were purified by CsCl density gradient followed by polyethylene glycol precipitation. The DNA was mixed with {fraction (1/10 )} the final volume of Waymouth's media minus serum and minus antibiotics (WAY^−) and added to an equal volume of WAY^− media containing the LipofectAMINE reagent. The DNA/lipid solution was gently mixed and incubated for 30 min at room temperature, then WAY^− media was added to achieve the final concentration of the DNA and LipofectAMINE reagent of 5 μg/ml and 20 μg/ml respectively. The cells were washed once with WAY^− media, incubated with transfection mix for 6 h, washed once with PBS, then incubated with Waymouth's plus 15% horse serum. The same procedure was used for transfection of COS 1 cells except Dulbecco's modified Eagle's media minus serum and antibiotics was used for the transfection media. For isolation of mitochondria for immunoblot analysis, cells were grown on 100-mm dishes. For progesterone production assays, MA-10 cells were plated into 96 well plates at 75,000 cells/well the day before the experiment. Typically, 8 wells each were transfected with either pCMV or pCMV+30-kDa cDNA for one experiment set.\nRadioimmunoassay. 48 hours post-transfection, the growth medium was replaced with Waymouth's minus horse serum. After 6 h at 37° C. 5% CO2, progesterone was measured directly in the media by radioimmunoassay as previously described (Resko, et al., 1974). The progesterone antibody was obtained from Holly Hill Biologicals (Hillsboro, Oreg.).\nMA-10 cells were transfected with the 30 kDa cDNA and progesterone production was measured as follows. The full-length cDNA was subcloned into the pCMW eukaryotic expression vector and transfected into MA-10 cells using LipofectAMINE (Life Technologies, Inc.). Cells (75,000 per well) were plated in a 96 well plate the day before transfection. The cells were incubated with the DNA/lipid transfection mixture for 6 hours, washed one time with PBS, and the incubated in Waymouths+15% horse serum. […] After 6 h, the medium was removed and progesterone was measured by radioimmunoassay. The cells were lysed directly in the wells with 0.1% SDS and protein was determined by the method of Bradford (1976). […] The transfected cells were not treated with hormone and progesterone was measured directly in the media after a 6 h incubation."}, "[4]": {"tested_on": "COS 1 cells", "assay": "Steroid production in COS 1 cells expressing StAR", "assay_type": "cell-based, monkey", "details": "transient transfection of COS 1 cells, absence of hormone stimulation", "description": "Testicular tissue of two patients and genome DNA of a third patient with LCAH have mutations in the gene for StAR (Lin et al., Science, 267:1828-1831, 1995) (incorporated herein by reference). […] These truncations were confirmed by Western analysis following expression of the mutated cDNAs in COS cells. Virtually none of the precursor form of StAR expressed from the cDNA of these patients was converted to the mature mitochondrial form.\nAlso, increases in StAR mRNA and protein closely paralleled steroid production indicating a temporal relationship in these parameters."}, "[5]": {"tested_on": "mitochondria isolated from MA-10 mouse Leydig tumor cells", "assay": "In vitro reconstituted system: pregnenolone synthesis by isolated mitochondria", "assay_type": "biochemical", "details": "protein added to isolated mitochondria", "description": "Rat heart mitochondria were used for the import assay with bovine StAR, indicating import of StAR is not dependent upon factors specific to mitochondria isolated from steroidogenic tissues. The ability of StAR to increase steroid production has also been confirmed in an in vitro reconstituted system."}, "[6]": {"tested_on": "COS 1 cells", "details": "expressed in COS1 cells (Lin et al., 1995); cited from earlier work"}}, "data": [{"molecule": "CC(C)CCC[C@@H](C)[C@H]1CC[C@H]2[C@@H]3CC=C4C[C@@H](O)CC[C@]4(C)[C@H]3CC[C@]12C", "note": "[cholesterol]", "values": [{"measurement": "specific binding to StAR", "setting": "[1]", "value": "20-40 % of the total binding"}]}, {"molecule": "C[C@H](CNc1ccc([N+](=O)[O-])c2nonc12)[C@H]1CC[C@H]2[C@@H]3CC=C4C[C@@H](O)CC[C@]4(C)[C@H]3CC[C@]12C", "note": "[NBD-cholesterol]", "values": [{"measurement": "affinity of binding to StAR", "setting": "[2]", "value": "nanomolar range"}]}, {"molecule": "B1", "values": [{"measurement": "average rate of progesterone produced", "setting": "[3]; MA-10 cells expressing the 30 kDa protein", "value": "166 pg progesterone produced per mg protein per hour"}, {"measurement": "increase in progesterone production above cells transfected with vector alone", "setting": "[3]; MA-10 cells, absence of hormone stimulation", "value": "1.5-3.5"}, {"measurement": "increase in steroidogenesis", "setting": "[3]; expression of 30 kDa protein in MA-10 cells versus pCMV vector alone", "value": "1.5 to 3.7", "unit": "fold"}, {"measurement": "constitutive steroid production versus basal parental MA-10 cells", "setting": "[3]; stable transfected MA-10 cell lines constitutively synthesizing the 30 kDa protein", "value": "about 9 x"}, {"measurement": "steroid production", "setting": "[4]", "value": "several fold increase"}, {"measurement": "pregnenolone synthesis", "setting": "[5]", "value": "time- and dose-dependent increase"}, {"measurement": "increase in steroid production", "setting": "[6]", "value": 8, "unit": "fold"}]}]}
